In article PMC3696110, “Hsp70 Oligomerization Is Mediated by an Interaction between the Interdomain Linker and the Substrate-Binding Domain” (PLoS ONE, 2013):
Where “and” joins values, the source holds several entries; their conditions need not be identical. Equal entries are not always repeated.

Columns and labels:
[1] = Analytical SEC relative populations of oligomeric forms; format: physicochemical, human; settings: for Dimer population / Monomer population / Total oligomer population: Superdex 75, 4 °C, 50 mM Tris pH 7.4, 150 mM KCl
Experimental: (§1) Analytical SEC was performed at 4 °C using a Superdex 75 10/300 GL column (GE Healthcare LifeSciences, Little Chalfont, U.K.), which had previously been calibrated using a mixture of standard proteins (Gel Filtration LMW Calibration Kit; GE Healthcare LifeSciences, Little Chalfont, U.K.). Typically, samples of the various constructs contained 70 µM of protein in 50 mM Tris buffer at pH 7.4, with 150 mM KCl, 5 mM MgCl2 and were incubated for 15 min (unless otherwise specified) at room temperature before being loaded onto the column for analysis. To evaluate the reversibility of the oligomerization process, the different elution peaks obtained for each protein variant were subsequently analyzed after concentrating the different fractions using AmiconUltra-0.5, Ultracel-3 Membrane, 3 kDa (Millipore, Bedford, MA, USA). A similar analysis was also performed at 6 µM concentration for all the protein variants to allow for a direct comparison between the results obtained by SEC and MS experiments.
The influence of substrate binding on the oligomerization properties of all the variants was examined by using the well-characterized Hsp70 substrate, the NR peptide (NRLLLTG, Genemed Synthesis Inc., San Antonio, TX, USA). A 14-fold excess of the peptide was added in each case to a fresh protein sample, incubated for 1 h at room temperature, unless otherwise specified, and then loaded onto the Superdex 75 10/300 GL column for analysis. The relative quantities of the different protein species were estimated by analysing the chromatographic profile using a Gaussian function for each elution peak (OriginPro 8, Originlab, Northampton, MA, USA) and measuring the relative area under each peak.

[2] = Secondary structure content from far-UV CD; format: physicochemical, human; settings: K2D software; 20 µM protein, 7 mM Tris pH 7.4, 170 mM KCl, 5 mM MgCl2; 25 °C
Experimental: Far-UV CD spectra for all protein variants were recorded using a Jasco J-810 spectropolarimeter equipped with a Peltier holder, using a 0.1 cm path length cuvette. Typically, samples contained 20 µM protein in 7 mM Tris buffer at pH 7.4, containing 170 mM KCl and 5 mM MgCl2. The far-UV CD spectra of all the variants in their native, thermally denatured and refolded states were recorded from 198 to 250 nm, and the spectrum of the buffer was systematically subtracted from the spectra of all protein samples. The secondary structure content was estimated from the far-UV CD spectrum for each protein variant using K2D software.

[3] = Tryptophan (W580) fluorescence emission; format: physicochemical, human; settings: W580, excitation 295 nm
Experimental: Steady-state tryptophan fluorescence emission spectra of native, thermally denatured and refolded proteins were recorded from 300 to 400 nm, selectively exciting the only tryptophan residue in the SBD (W580) at 295 nm, using a Cary Eclipse spectrofluorimeter (Varian, Palo Alto, CA, USA). Excitation and emission band-passes were set to 5 nm each.

[4] = SEC/DLS of oligomeric species; format: physicochemical, human; settings: SEC, 20 µM SBD641
Experimental: as §1, with “A similar analysis was also performed at 6 µM concentration for all the protein variants to allow for a direct comparison between the results obtained by SEC and MS experiments.” left out
Dynamic light scattering. Representative size distributions of SBD641 at different protein concentrations in Tris 50 mM, pH 7.4, 150 mM KCl, 5 mM MgCl2 were recorded at 25 °C on the Zetasizer Nano ZS instrument (Malvern Instruments Ltd.) at 633 nm after 1 h of incubation at room temperature. […] Some samples were analyzed after 1 h and 4 h incubation at room temperature and the same intensity size distributions were obtained. The samples were centrifuged for 15 min at 13200 rpm to remove dust particles and the scattered light was detected at an angle of 173°. […]

refolded SBD641 = assay: Fluorescence titration of dansyl-NR peptide binding, refolded protein; parameters: species or system human; settings: refolded vs native SBD641, fluorescence titration
Experimental: The interaction between the different Hsp70 variants and the NR peptide was studied in 50 mM Tris buffer at pH 7.4, with 150 mM KCl, and 5 mM MgCl2 using fluorescence spectroscopy by titrating different concentrations of chaperone into a solution containing 2 µM dansyl-NR peptide (N-terminally labeled; Genemed Synthesis Inc., San Antonio, TX, USA) after incubating the mixtures for 1 h at 25°C. The concentration of dansyl-NR peptide was calculated using an extinction coefficient at 327 nm of 4300 M^-1.cm^-1 [39]. The fluorescence emission spectrum of each sample was recorded from 400 to 630 nm after excitation at 330 nm, and the data reported correspond to the average intensity at the maximum emission wavelength of two different samples for which ten spectra were recorded. The increase in fluorescence signal was plotted as a function of chaperone concentration (Figure S2), and analyzed assuming single-site binding using the following equation:
ΔF=ΔFmaxΘL=ΔFmax/2LT[(PT+LT+Kd)−(PT+LT+Kd)^2−4PTLT] (1)
where ΘL is the fraction of bound ligand, ΔF is the increase in fluorescence intensity observed at a given concentration of Hsp70 variant, ΔF max is the increase in fluorescence at saturation, L T and P T are the total ligand and protein concentration respectively, and K d is the apparent dissociation constant of the complex. […]

[5] = 70 µM protein, 5 mM MgCl2, 15 min at room temperature, estimated error 3.5% (SD of 3-4 independent experiments)
[6] = 6-15 µM protein, 5 mM MgCl2, estimated error 3.5% (SD of 3-4 independent experiments)

## SBD641: truncated human Hsp70 (384-641), full-length SBD with interdomain linker
[1]; [5]
  Dimer population: 55%
  Monomer population: 23%
  Total oligomer population: 77%
[1]; [6]
  Dimer population: 44%
  Monomer population: 37%
  Total oligomer population: > 50% and 63%
[1]; native SBD641, comparison with refolded
  Monomeric fraction, native protein: 37%
[1]; refolded after thermal denaturation
  Monomeric fraction, refolded protein: 71%
[2]
  Random-coil content estimated from far-UV CD: 49%
  α-helix content estimated from far-UV CD: 33%
  β-sheet content estimated from far-UV CD: 18%
[3]
  Wavelength of fluorescence emission maximum, native: 340 nm
  Wavelength of fluorescence emission maximum, refolded: 345 nm
  Wavelength of fluorescence emission maximum, thermally denatured: 350 nm
[4]
  Oligomer fraction, no NR peptide: ca. 0.7
Refolded SBD641
  Affinity of refolded SBD641 for substrate: same affinity as the native protein
